Laboratory results published in patent US20230357415A1 (AJOU UNIVERSITY INDUSTRY ACADEMIC COOPERATION FOUNDATION, published 2023).

B1: 4R34.1.19-SL-5R65 (bispecific antibody, human IgG1, kappa)
light: QSVLTQPPSASGTPGQRVTISCSGSPLFPDSGSFNWYQQLPGTAPKLLIYADSHRPSGVPDRFSGSKSGTSASLAISGLRSEDEADYYCGTWDYSLSGYVLGGGTKLTVLGTVAAPDIQMTQSPSTLSASVGDRVTITCKASQNVGTAVAWYQQKPGKAPKLLIYWASTRHTGVPDRFSGSGSGTDFTLTISSLQPDDFATYYCQQFGRYPYTFGSGTKVEVKRTVAAPSVFIFPPSDEQLKSGTASVVCLLNNFYPREAKVQWKVDNALQSGNSQESVTEQDSKDSTYSLSSTLTLSKADYEKHKVYACEVTHQGLSSPVTKSFNRGEC
heavy: not shown
notes: The 4R34.1.19 variable regions are outermost and the 5R65 variable regions come second; also called 4R-SL-5R; DVD-IgG
B2: 5R65.39 (antibody, IgG1, V domains shown)
VH: QVQLVQSGAEVKKPGSSVKVSCKASGYTFTSYWINWVRQAPGQGLEWIGHIYPNKNENYYNHKFKDKATLTVDKSTNTAYMELSSLRSEDTAVYYCTREFYGRSRYSAMDYWGQGTTLTVSS
VL: DIQMTQSPSTLSASVGDRVTITCKASQNVGTAVAWYQQKPGKAPKLLIYWASTRHTGVPDRFSGSGSGTDFTLTISSLQPDDFATYYCQQFGRYPYTFGSGTKVEVK
notes: IgG1
B3: 5R65.45 (antibody, IgG1, V domains shown)
VH: QVQLVQSGAEVKKPGSSVKVSCKASGYTFTSYWINWVRQAPGQGLEWIGHIYPNKNENYYNHKFKDKATLTVDKSTNTAYMELSSLRSEDTAVYYCTREYYGRSYYNAMDYWGQGTTLTVSS
VL: DIQMTQSPSTLSASVGDRVTITCKASQNVGTAVAWYQQKPGKAPKLLIYWASTRHTGVPDRFSGSGSGTDFTLTISSLQPDDFATYYCQQFGRYPYTFGSGTKVEVK
notes: IgG1

Columns and labels:
[1] = target: T1, sIL-5Rα antigen protein (Sinobio 10392-H08H) (Homo sapiens (Human), UniProt Q01344 21-342); test: indirect ELISA; plate-coated sIL-5Rα, antibody 100, 10, 1 nM, anti-human Fc-HRP, absorbance at 450 nm
T1 construct: Bought protein immobilised in the indirect ELISAs; also called soluble IL-5Rα; CD125
T1 sequence: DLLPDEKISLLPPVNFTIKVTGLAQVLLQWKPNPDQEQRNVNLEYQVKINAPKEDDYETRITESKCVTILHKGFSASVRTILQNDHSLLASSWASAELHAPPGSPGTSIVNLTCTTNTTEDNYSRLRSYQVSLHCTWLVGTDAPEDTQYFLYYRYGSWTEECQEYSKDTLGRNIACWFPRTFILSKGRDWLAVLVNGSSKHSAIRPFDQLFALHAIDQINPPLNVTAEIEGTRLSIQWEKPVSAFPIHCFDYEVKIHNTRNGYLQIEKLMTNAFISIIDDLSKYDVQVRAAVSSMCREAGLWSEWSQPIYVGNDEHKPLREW
Procedure: After discarding the solution and washing the same three times with 0.1% PBST, an anti-human Fc-HRP antibody (1:8000) as a secondary antibody was added in an amount of 25 μl/well and reacted at room temperature for 1 hour.

[2] = target: T2, sIL-4Rα (soluble IL-4Rα) antigen protein (human, UniProt P24394 26-232); test: indirect ELISA; plate-coated sIL-4Rα, antibody 100 nM, anti-human Fc-HRP, absorbance at 450 nm
T2 construct: The ELISA and Octet assays used the bought protein (Sinobio 10402-H08H); also called CD124; sinobio 10402-H08H
Procedure: (§1) The binding specificity of anti-IL-5Rα humanized antibodies was determined using indirect ELISA. A multi-antigen ELISA was performed using four structurally different antigenic double-stranded DNA (dsDNA), insulin, the macromolecule hemocyanin, and the membrane component, cardiolipin. Specifically, sIL-4Rα antigen protein (50 ng/well, Sinobio; 10402-H08H), sIL-5Rα antigen protein (50 ng/well, Sinobio; 10392-H08H), dsDNA (25 ng/well, D4522; Sigma), insulin (125 ng/well, 19278; Sigma), hemocyanin (125 ng/well, H8283; Sigma), and cardiolipin (1250 ng/well, C0563; Sigma) proteins were immobilized on a 96-well plate at room temperature for 1 hour, and blocked using 2% skim milk containing 0.1% PBST (0.1% Tween20, pH 7.4, 137 mM NaCl, 10 mM phosphate, 2.7 mM KCl) at room temperature for 1 hour. After discarding the solution and then washing the same three times with 0.1% PBST, the antibody was diluted to 100 nM, added to the blocked plate in an amount of […], and allowed to react at room temperature for 1 hour. […] After discarding the solution and washing three times with PBST, a TMB solution was added in an amount of […], color development was induced at room temperature for 2 minutes, the reaction was stopped using H₂SO₄ (2N), and the absorbance at 450 nm was measured with an ELISA reader.

insulin = target: T3, insulin (Homo sapiens (Human), UniProt P01308 25-54; P01308 90-110, Mature two-chain hormone: A and B chains joined by two interchain disulfides, plus one intrachain disulfide in the A chain; the letters do not carry these.); test: indirect ELISA; plate-coated insulin, antibody 100 nM, anti-human Fc-HRP, absorbance at 450 nm
T3 construct: Irrelevant antigen of the multi-antigen specificity ELISA; also called insulin (125 ng/well, 19278; Sigma)
Procedure: as §1

[3] = target: T4, purified sIL-5Rα (Asp1-Asn313 of SEQ ID NO: 66) (Homo sapiens (Human), UniProt Q01344 21-333); test: BLI (Octet QKe), antibody on AHC sensor, purified sIL-5Rα in solution, 1:1 model
T4 construct: also called the purified sIL-5Rα
T4 sequence: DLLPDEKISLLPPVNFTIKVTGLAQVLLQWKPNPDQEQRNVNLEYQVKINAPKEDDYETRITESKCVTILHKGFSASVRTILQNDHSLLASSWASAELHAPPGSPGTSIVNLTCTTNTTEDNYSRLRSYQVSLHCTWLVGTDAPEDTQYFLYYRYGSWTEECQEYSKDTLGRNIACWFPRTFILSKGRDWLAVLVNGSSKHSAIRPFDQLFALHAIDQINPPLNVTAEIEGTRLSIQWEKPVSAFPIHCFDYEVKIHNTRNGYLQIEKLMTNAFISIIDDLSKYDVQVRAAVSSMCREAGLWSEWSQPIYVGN
Procedure: Specifically, lx kinetic buffer was prepared by diluting 10× kinetic buffer (ForteBio, 18-1105) in PBS. […] Affinity was calculated with Octet Data Analysis software 11.0 in a 1:1 binding model.

T3 sequence (P01308 25-54 limits assumed, chain 1 of 2): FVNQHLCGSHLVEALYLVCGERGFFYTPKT
T3 sequence (P01308 90-110 limits assumed, chain 2 of 2): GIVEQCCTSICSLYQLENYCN

Binder | binding result [1] | binding result [2] | binding result (insulin) | Kd [3] [nM] | koff [3] [s⁻¹] | kon [3] [M⁻¹ s⁻¹]
B1 | binds |  |  |  |  | 
B2 |  | no binding (tested: 100 nM) | no binding (tested: 100 nM) | 6.13 | 0.000171 | 28000
B3 |  | no binding (tested: 100 nM) | no binding (tested: 100 nM) | 7.26 | 0.000181 | 24900
